Data on 94 variants can be found in the supplement of paper PMC10567573.

To fix the notation:
B1: ADD1 (parent)
chain: FASDGDSGTCSPLRHSFQKQQREK
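Note: lentivirally expressed fusions sorted by FACS into six bins by GFP to DsRed ratio, PSI derived from sequencing read proportions per bin multiplied by bin number.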

In the data set the parent is B1. In words: protein stability index of a GFP-peptide fusion (GPS, HEK-293T) (PSI 1-6); higher = more stable. Conditions: c terminus: a fixed tail appended.
Regarding FASDGDSGTCEPLRHSFQKQQREK [S11E], the protein stability index was 4.5. With FASDGDSGTCGPLRHSFQKQQREK [S11G] the figure was 4.35; with FASDGDSGTCRPLRHSFQKQQREK [S11R], 4.39; with FASDGDSGTCMPLRHSFQKQQREK [S11M], 3.75. With FASDGDSGTCYPLRHSFQKQQREK [S11Y] the figure was 3.92. Then FASDGDSGTCFPLRHSFQKQQREK [S11F], with 3.17; and FASDGDSGTCDPLRHSFQKQQREK [S11D], with 4.04; and FASDGDSGTCTPLRHSFQKQQREK [S11T], with 4.53. With FASDGDSGTCKPLRHSFQKQQREK [S11K], the protein stability index worked out at 4.45. With FASDGDSGTCWPLRHSFQKQQREK [S11W] the figure was 2.17; with FASDGDSGTCQPLRHSFQKQQREK [S11Q], 4.25. Then FASDGDSGTCAPLRHSFQKQQREK [S11A], with 3.9; and FASDGDSGTCLPLRHSFQKQQREK [S11L], with 3.94.

For FASDGDSGTCNPLRHSFQKQQREK [S11N], the protein stability index was 1.87.

For the variant FASDGDSGTCPPLRHSFQKQQREK [S11P], the protein stability index stood at 4.62. For FASDGDSGTCCPLRHSFQKQQREK [S11C], the protein stability index amounted to 3.16.

Consider FASDGDSGTCIPLRHSFQKQQREK [S11I], for which the protein stability index is 3.79. Then FASDGDSGTCHPLRHSFQKQQREK [S11H], with 2.62; and FASDGDSGTCVPLRHSFQKQQREK [S11V], with 4.58. Then FASDGDSGTCSPLRHSFQSQQREK [K19S], with 3.23. Then FASDGDSGTCSPLRHSFQRQQREK [K19R], with 3.19; and FASDGDSGTCSPLRHSFQPQQREK [K19P], with 3.09; and FASDGDSGTCSPLRHSFQCQQREK [K19C], with 1.66. Take FASDGDSGTCSPLRHSFQLQQREK [K19L]: the protein stability index is 2.76.

For the variant FASDGDSGTCSPLRHSFQNQQREK [K19N], the protein stability index stood at 3.08. Then FASDGDSGTCSPLRHSFQDQQREK [K19D], with 3.61; and FASDGDSGTCSPLRHSFQEQQREK [K19E], with 3.71; and FASDGDSGTCSPLRHSFQMQQREK [K19M], with 3.61. For the variant FASDGDSGTCSPLRHSFQQQQREK [K19Q], the protein stability index was 4.53. With FASDGDSGTCSPLRHSFQIQQREK [K19I] the figure was 3.17. Take FASDGDSGTCSPLRHSFQHQQREK [K19H]: the protein stability index is 4.43. Then FASDGDSGTCSPLRHSFQFQQREK [K19F], with 3.01. Then FASDGDSGTCSPLRHSFQGQQREK [K19G], with 3.54; and FASDGDSGTCSPLRHSFQTQQREK [K19T], with 3.11; and FASDGDSGTCSPLRHSFQAQQREK [K19A], with 2.85. In the case of FASDGDSGTCSPLRHSFQYQQREK [K19Y], the protein stability index is 3.62. For the variant FASDGDSGTCSPLRHSFQWQQREK [K19W], the protein stability index was 1.8. Then FASDGDSGTCSPLRHSFQKQAREK [Q21A], with 3.85; and FASDGDSGTCSPLRRSFQKQQREK [H15R], with 3.45. With FASDGDSGTCSPLRQSFQKQQREK [H15Q] the figure was 3.44; with FASDGDSGTCSPLRVSFQKQQREK [H15V], 2.93. Then FASDGDSGTCSPLRNSFQKQQREK [H15N], with 4.41.

For FASDGDSGTCSPLRCSFQKQQREK [H15C], the protein stability index was 2.62. With FASDGDSGTCSPLRTSFQKQQREK [H15T] the figure was 4.16; with FASDGDSGTCSPLRFSFQKQQREK [H15F], 3.01; with FASDGDSGTCSPLRISFQKQQREK [H15I], 3.5. Then FASDGDSGTCSPLRMSFQKQQREK [H15M], with 2.88; and FASDGDSGTCSPLRKSFQKQQREK [H15K], with 4.1; and FASDGDSGTCSPLRASFQKQQREK [H15A], with 3.83. Then FASDGDSGTCSPLRESFQKQQREK [H15E], with 4.34; and FASDGDSGTCSPLRYSFQKQQREK [H15Y], with 3.44. In the case of FASDGDSGTCSPLRSSFQKQQREK [H15S], the protein stability index came to 4.22.

Consider FASDGDSGTCSPLRDSFQKQQREK [H15D], for which the protein stability index is 5.02. Then FASDGDSGTCSPLRWSFQKQQREK [H15W], with 2.39; and FASDGDSGTCSPLRLSFQKQQREK [H15L], with 3.21; and FASDGDSGTCSPLRPSFQKQQREK [H15P], with 4.01.

Consider FASDGDSGTCSPLRGSFQKQQREK [H15G], for which the protein stability index stood at 3.29. Then FASDGDSGTCSPLVHSFQKQQREK [R14V], with 3.97. Then FASDGDSGTCSPLEHSFQKQQREK [R14E], with 4.64. Then FASDGDSGTCSPLDHSFQKQQREK [R14D], with 4.75. On to FASDGDSGTCSPLSHSFQKQQREK [R14S], for which the protein stability index is 4.45.

Turning to FASDGDSGTCSPLPHSFQKQQREK [R14P], the protein stability index worked out at 5.13. With FASDGDSGTCSPLMHSFQKQQREK [R14M] the figure was 4.27; with FASDGDSGTCSPLHHSFQKQQREK [R14H], 3.98; with FASDGDSGTCSPLAHSFQKQQREK [R14A], 4.18.

Take FASDGDSGTCSPLIHSFQKQQREK [R14I]: the protein stability index is 4.52. Take FASDGDSGTCSPLKHSFQKQQREK [R14K]: the protein stability index was 4.55. With FASDGDSGTCSPLTHSFQKQQREK [R14T] the figure was 4.8; with FASDGDSGTCSPLNHSFQKQQREK [R14N], 4.46; with FASDGDSGTCSPLWHSFQKQQREK [R14W], 4.02. With FASDGDSGTCSPLYHSFQKQQREK [R14Y] the figure was 1.94. With FASDGDSGTCSPLGHSFQKQQREK [R14G] the figure was 4.11. As for FASDGDSGTCSPLCHSFQKQQREK [R14C], the protein stability index was 3.52.

FASDGDSGTCSPLQHSFQKQQREK [R14Q]: the protein stability index was 3.6.

FASDGDSGTCSPLLHSFQKQQREK [R14L]: the protein stability index was found to be 3.66.

For the variant FASDGDSGTCSPLRHSFMKQQREK [Q18M], the protein stability index stood at 3.13. Then FASDGDSGTCSPLRHSFVKQQREK [Q18V], with 2.97; and FASDGDSGTCSPLRHSFYKQQREK [Q18Y], with 3.31. With FASDGDSGTCSPLRHSFHKQQREK [Q18H] the figure was 3.13; with FASDGDSGTCSPLRHSFIKQQREK [Q18I], 3.33; with FASDGDSGTCSPLRHSFNKQQREK [Q18N], 4.

As for FASDGDSGTCSPLRHSFPKQQREK [Q18P], the protein stability index is 3.84. Then FASDGDSGTCSPLRHSFGKQQREK [Q18G], with 3.33; and FASDGDSGTCSPLRHSFEKQQREK [Q18E], with 3.88. With FASDGDSGTCSPLRHSFLKQQREK [Q18L] the figure was 3.73; with FASDGDSGTCSPLRHSFRKQQREK [Q18R], 3.81; with FASDGDSGTCSPLRHSFKKQQREK [Q18K], 3.31.

Take FASDGDSGTCSPLRHSFDKQQREK [Q18D]: the protein stability index came out at 3.83. Then FASDGDSGTCSPLRHSFFKQQREK [Q18F], with 3.16; and FASDGDSGTCSPLRHSFCKQQREK [Q18C], with 2.62; and FASDGDSGTCSPLRHSFAKQQREK [Q18A], with 2.75. With FASDGDSGTCSPLRHSFTKQQREK [Q18T] the figure was 3.4; with FASDGDSGTCSPLRHSFWKQQREK [Q18W], 1.62; with FASDGDSGTCSPLRHSFSKQQREK [Q18S], 3.52.
